Test results as given in patent US20210054071A1 (NANJING LEGEND BIOTECH, published 2021).

T1: TIGIT on activated primary human T cells (human, UniProt Q495A1)
T1 sequence (receptor, looked up): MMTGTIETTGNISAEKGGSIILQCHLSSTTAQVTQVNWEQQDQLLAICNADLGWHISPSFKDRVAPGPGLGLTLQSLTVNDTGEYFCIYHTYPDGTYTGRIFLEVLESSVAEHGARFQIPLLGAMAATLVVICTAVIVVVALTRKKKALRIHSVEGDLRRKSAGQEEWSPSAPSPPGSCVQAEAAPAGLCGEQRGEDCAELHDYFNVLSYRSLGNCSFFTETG

T2: human TIGIT expressed on CHO-K1 cells (human, UniProt Q495A1 22-244)
T2 construct: also called CHO/human TIGIT cells; CHO-TIGIT cells
T2 sequence: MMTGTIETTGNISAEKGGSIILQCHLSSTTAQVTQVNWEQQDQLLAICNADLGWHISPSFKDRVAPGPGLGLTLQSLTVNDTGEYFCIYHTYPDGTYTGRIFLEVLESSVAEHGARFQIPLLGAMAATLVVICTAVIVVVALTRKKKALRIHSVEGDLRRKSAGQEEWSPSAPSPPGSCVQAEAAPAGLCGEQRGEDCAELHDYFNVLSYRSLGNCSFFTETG

T3: TIGIT on TIGIT effector cells (UniProt Q495A1 22-244, limits assumed)
T3 sequence (looked up): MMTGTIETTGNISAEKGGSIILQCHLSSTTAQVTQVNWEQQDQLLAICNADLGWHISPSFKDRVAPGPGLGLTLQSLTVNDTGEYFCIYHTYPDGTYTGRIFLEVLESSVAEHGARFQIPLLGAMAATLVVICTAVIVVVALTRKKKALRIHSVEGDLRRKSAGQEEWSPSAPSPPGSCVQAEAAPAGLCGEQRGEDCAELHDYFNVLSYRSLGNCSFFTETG

T4: mouse TIGIT-His protein (Acrobiosystems) (mouse, UniProt P86176 29-148, limits assumed)
T4 construct: bought
T4 sequence (looked up): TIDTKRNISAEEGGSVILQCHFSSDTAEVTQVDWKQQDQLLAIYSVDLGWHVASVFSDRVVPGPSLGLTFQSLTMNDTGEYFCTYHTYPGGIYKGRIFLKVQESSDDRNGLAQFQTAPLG


Legend:
[1] = molecular target: T5, human PD-1 (Acrobiosystems) (human, UniProt Q15116 25-167); test: SPR as in Example 2
T5 construct: bought
T5 sequence (Q15116 25-167 limits assumed): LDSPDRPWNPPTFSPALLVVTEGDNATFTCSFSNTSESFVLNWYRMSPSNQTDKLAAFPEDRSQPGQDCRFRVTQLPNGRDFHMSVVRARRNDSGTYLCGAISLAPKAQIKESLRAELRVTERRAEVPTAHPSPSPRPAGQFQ
Method: (§1) BIAcore T200 instrument was utilized to determine affinity constant (KD) of each anti-TIGIT sdAb-Fc fusion protein by SPR. […] Anti-TIGIT sdAb-Fc fusion proteins were injected at no less than 5 different concentrations.

[2] = molecular target: T6, PD-1 expressed on cells (UniProt Q15116 25-288, limits assumed); test: cell-based or functional assay
T6 sequence (Q15116 25-288 limits assumed): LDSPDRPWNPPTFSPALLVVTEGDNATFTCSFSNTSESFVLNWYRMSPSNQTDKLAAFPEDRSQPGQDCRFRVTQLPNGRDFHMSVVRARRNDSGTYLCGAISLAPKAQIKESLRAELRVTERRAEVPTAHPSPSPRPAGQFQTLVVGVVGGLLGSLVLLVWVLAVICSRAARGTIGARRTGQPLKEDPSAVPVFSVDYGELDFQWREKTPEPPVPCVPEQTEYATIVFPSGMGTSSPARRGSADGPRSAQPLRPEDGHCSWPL

[3] = molecular target: T6, PD-1 expressed on cells; test: FACS, CHO-PD-1 cells
[4] = molecular target: T6, PD-1 expressed on cells; test: FACS competition, PD-L1 binding to CHO-PD-1 cells
[5] = molecular target: T1, TIGIT on activated primary human T cells; test: FACS binding to activated, expanded primary human CD8+ T cells isolated from PBMCs; the sheet names only the cells, target by the binder's specificity as named in the filing (anti-TIGIT)
[6] = molecular target: T2, human TIGIT expressed on CHO-K1 cells; test: FACS competition, CD155 binding to CHO-TIGIT cells
Method: (§2) To determine cell binding EC₅₀, CHO—K1 cells expressing human, cynomolgus or murine TIGIT were harvested and incubated with gradient concentrations of anti-TIGIT sdAb-Fc fusion proteins, followed by fluorophore-labeled secondary antibodies against human Fc. […] Samples were analyzed with flow cytometry.

[7] = molecular target: T2, human TIGIT expressed on CHO-K1 cells; test: FACS, CHO-TIGIT cells
Method: as §2

[8] = molecular target: T3, TIGIT on TIGIT effector cells; test: cell-based or functional assay
[9] = molecular target: T1, TIGIT on activated primary human T cells; test: FACS binding to activated, expanded primary human CD4+ T cells isolated from PBMCs; the sheet names only the cells, target by the binder's specificity as named in the filing (anti-TIGIT)
[10] = molecular target: T3, TIGIT on TIGIT effector cells; test: cell-based or functional assay; remark: listed apart in the source
[11] = molecular target: T4, mouse TIGIT-His protein (Acrobiosystems); test: SPR as in Example 2
Method: as §1

| Kd [1] | PD-1 cell based assay EC50 [2] | EC50 [3] | EC50 [4] | EC50 [5] | EC50 [6] | EC50 [7] | TIGIT Reporter assay EC50 [8] | EC50 [9] | PD-L1/TIGIT bifunctional reporter assay: EC50 [10] | PD-L1/TIGIT bifunctional reporter assay: Upper plateau of signal [10] | Kd [11] | TIGIT IL-2 release EC50 [8] | Binder |
| --- | --- | --- | --- | --- | --- | --- | --- | --- | --- | --- | --- | --- | --- |
| 1.2 nM | 1.21 nM | 1.72 nM | 1.51 nM |  |  |  |  |  |  |  |  |  | PD1-BM-min (IgG4) (antibody, V domains shown, anti-PD-1 monoclonal antibody, human IgG4 Fc) VH: EVQLVESGGGLVQPGGSLRLSCAASGFVFSRYDMAWVRQAPGKGLEWVSFISGGGSNTYYPDTVKGRFTISRDNSKNTLYLQMNSLRAEDTAVYYCISPYYYAMEYWGQGTTVTVSS VL: DIQMTQSPSSVSASVGDRVTITCKASQDVDTAVAWYQQKPGKAPKLLIYWASTRHTGVPSRFSGSGSGTDFTLTISSLQPEDFATYYCQQYSTFPWTFGGGTKVEIKR |
|  |  |  |  | 1.41 nM | 2.42 nM | 2.24 nM | 11.4 nM | 0.403 nM | 3.61 nM | 983 |  |  | Tiragolumab (antibody, human IgG1, kappa, V domains shown, also called Tiragolumab (anti-TIGIT)) VH: EVQLQQSGPGLVKPSQTLSLTCAISGDSVSSNSAAWNWIRQSPSRGLEWLGKTYYRFKWYSDYAVSVKGRITINPDTSKNQFSLQLNSVTPEDTAVFYCTRESTTYDLLAGPFDYWGQGTLVTVSS VL: not shown |
| 4 nM | 8.51 nM | 6.31 nM | 8.68 nM |  |  |  | 7.81 nM |  |  |  | 0.5 nM | 0.778 nM | BTP-11 (bispecific antibody, human IgG4 S228P, kappa, AS19584VH28 - mutated hIgG1 hinge - PD1-BM-min heavy chain (IgG4); also called BTP-11 (IgG4); PD-1×TIGIT BABP) heavy: not shown light: DIQMTQSPSSVSASVGDRVTITCKASQDVDTAVAWYQQKPGKAPKLLIYWASTRHTGVPSRFSGSGSGTDFTLTISSLQPEDFATYYCQQYSTFPWTFGGGTKVEIKRTVAAPSVFIFPPSDEQLKSGTASVVCLLNNFYPREAKVQWKVDNALQSGNSQESVTEQDSKDSTYSLSSTLTLSKADYEKHKVYACEVTHQGLSSPVTKSFNRGEC |
